For one sequence, binding results are on record in PMC7069074.

This series concerns the target T1, ERα (purified) (UniProt P03372).
T1 sequence: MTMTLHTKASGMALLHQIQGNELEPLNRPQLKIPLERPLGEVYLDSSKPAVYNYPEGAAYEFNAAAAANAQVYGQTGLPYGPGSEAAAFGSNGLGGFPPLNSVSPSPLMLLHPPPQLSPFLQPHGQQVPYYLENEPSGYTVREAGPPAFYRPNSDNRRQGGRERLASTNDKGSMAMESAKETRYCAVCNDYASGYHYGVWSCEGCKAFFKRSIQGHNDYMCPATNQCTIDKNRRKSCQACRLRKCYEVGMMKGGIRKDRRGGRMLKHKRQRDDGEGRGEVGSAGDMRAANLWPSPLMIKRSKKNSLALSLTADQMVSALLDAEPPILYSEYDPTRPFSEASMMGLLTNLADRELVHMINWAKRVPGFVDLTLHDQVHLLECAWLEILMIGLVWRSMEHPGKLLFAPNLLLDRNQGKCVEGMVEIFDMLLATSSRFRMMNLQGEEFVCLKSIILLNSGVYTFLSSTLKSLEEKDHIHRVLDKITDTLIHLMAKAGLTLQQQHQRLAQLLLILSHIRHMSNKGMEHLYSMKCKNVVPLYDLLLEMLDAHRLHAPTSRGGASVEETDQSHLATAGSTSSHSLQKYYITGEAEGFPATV
Briefly: EMSA (1% agarose, ethidium bromide). To be noted: EMSA: 0.1 M KCl, 1 mM DTT, 1 mM MgCl2, 10 mM HEPES pH 7.6, 37 °C, 30 min; pull-down: lysate in 5 mM PIPES, 85 mM KCl, 0.5% NP-40, 2 mM PMSF, 4 °C overnight ….

As for “AACGGAGTGTAGTCGGCTGACCCCTAGCATAGAGCAGTGCTGTTGGCTACTAACCACACCTCTCTACCTCTTTCTTACTCTAATATTACCCACCACAACAGCCAGAAAGTTCTTTTGAGAACATCTATCTGATCATGACACTGTCTTACTTAAAATCTTCCAGTGACTACTATTACCCTTAGGGTAGTCCAGATTCCATAATGTGGTTTACTGGACTCTATGACTTCTAAGAGAAGTCTTAGAGT (double strand) [YB-1 promoter]”, the binding entry was “binds”.
